In US20250019439A1 (Adimab, published 2025):

Columns and labels:
[1] = biological target: T1, ADI-26941 IgG; experiment: BLI; tip anti-CD3 IgG, solution ADI-34134 IgG
T1 construct: anti-CD3 IgG
Method: (§1) ForteBio affinity measurements were performed generally as previously described (Estep et al., MAbs. 2013 5(2):270-8). Briefly, ForteBio affinity measurements were performed by loading antibody IgG or Fabs on-line onto AHC sensors. Sensors were equilibrated off-line in assay buffer for 30 minutes and then monitored on-line for 60 seconds for baseline establishment. For avid binding measurement, sensors with loaded antibodies were exposed to IgG or Fab solutions for 3 minutes, afterwards they were transferred to assay buffer for 3 minutes for off-rate measurement. Kinetics data were fit using a 1:1 binding model in the data analysis software provided by ForteBio to obtain equilibrium dissociation constant (KD=koff/kₒₙ) values. In each column, tip-immobilized antibodies are listed first and solution antibodies second.
CTL-19613 is an IgG1 antibody prepared with anti-CD3 variable domains corresponding with those of clone 12C described in United States Publication Number US 2010/0183615 (e.g., see paragraphs 469-479 and FIG. 25 thereof), which also make up the CD3 binding domain of the bispecific antibody pasotuxizumab. […] In each column, tip-immobilized antibodies are listed first and solution antibodies second.

[2] = biological target: T2, ADI-26928 anti-CD3 bsIgG; experiment: BLI; tip anti-CD3 bsIgG, solution ADI-34134 IgG
T2 construct: anti-HER2 IgG with one Fab arm replaced by the anti-CD3 scFv (printed 'Vx-VH', read as VL-VH); S354C and Y349C mutations; also called anti-CD3 bsIgG (ADI-26928 scFv); not shown: scFv linker; anti-HER2 Fab arm (heavy and light chain); hinge and Fc with S354C/Y349C
T2 sequence (VH, as listed by the source limits assumed, chain 1 of 2): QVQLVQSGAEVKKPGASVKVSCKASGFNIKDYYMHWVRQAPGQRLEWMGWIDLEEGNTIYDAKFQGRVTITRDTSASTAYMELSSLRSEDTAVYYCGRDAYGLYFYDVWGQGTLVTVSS
T2 sequence (VL, as listed by the source limits assumed, chain 2 of 2): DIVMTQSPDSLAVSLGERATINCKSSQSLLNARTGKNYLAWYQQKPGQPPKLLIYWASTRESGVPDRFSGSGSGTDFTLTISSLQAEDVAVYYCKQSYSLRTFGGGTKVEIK
Method: as §1
(§2) Additional analysis was conducted using bispecific antibody formats incorporating anti-CD3 antibody variable domains. Bispecific antibodies were prepared using standard IgG formats (bsIgG) with replacement of Fab arms with anti-CD3 scFvs in Vx-VH orientation and with S354C and Y349C mutations for disulfide stabilization. Antibodies used for Fab arm replacement were anti-HER2 IgG antibodies, with one Fab arm from each replaced by a scFv corresponding to a different anti-CD3 antibody. […] In each column, tip-immobilized antibodies are listed first and solution antibodies second. Anti-CD3 antibodies associated with incorporated scFvs are listed by antibody number.

[3] = biological target: T3, ADI-26906 anti-CD3 bsIgG; experiment: BLI; tip anti-CD3 bsIgG, solution ADI-34134 IgG
T3 construct: anti-HER2 IgG with one Fab arm replaced by the anti-CD3 scFv (printed 'Vx-VH', read as VL-VH); S354C and Y349C mutations; also called anti-CD3 bsIgG (ADI-26906 scFv); not shown: scFv linker; anti-HER2 Fab arm (heavy and light chain); hinge and Fc with S354C/Y349C
T3 sequence (VH, as listed by the source limits assumed, chain 1 of 2): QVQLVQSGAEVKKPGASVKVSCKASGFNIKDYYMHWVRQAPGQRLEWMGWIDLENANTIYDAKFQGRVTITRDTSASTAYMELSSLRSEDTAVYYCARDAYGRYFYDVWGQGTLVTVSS
T3 sequence (VL, as listed by the source limits assumed, chain 2 of 2): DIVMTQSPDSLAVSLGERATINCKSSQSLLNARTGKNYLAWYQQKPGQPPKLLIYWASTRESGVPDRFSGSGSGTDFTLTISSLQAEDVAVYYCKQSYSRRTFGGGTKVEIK
Method: as §1, §2

[4] = biological target: T4, ADI-26920 anti-CD3 bsIgG; experiment: BLI; tip anti-CD3 bsIgG, solution ADI-34134 IgG
T4 construct: anti-HER2 IgG with one Fab arm replaced by the anti-CD3 scFv (printed 'Vx-VH', read as VL-VH); S354C and Y349C mutations; also called anti-CD3 bsIgG (ADI-26920 scFv); not shown: scFv linker; anti-HER2 Fab arm (heavy and light chain); hinge and Fc with S354C/Y349C
T4 sequence (VH, as listed by the source limits assumed, chain 1 of 2): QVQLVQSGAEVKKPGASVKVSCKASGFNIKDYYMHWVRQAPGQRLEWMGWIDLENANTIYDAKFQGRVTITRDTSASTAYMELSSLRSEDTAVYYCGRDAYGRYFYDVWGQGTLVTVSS
Method: as §1, §2

[5] = biological target: T5, CTL-19613 anti-CD3 bsIgG (In the assay the two domains were one scFv (VL-VH orientation, linker not given). It replaced one Fab arm of an anti-HER2 IgG; S354C and Y349C mutations are stated for disulfide stabilization.); experiment: BLI; tip anti-CD3 bsIgG, solution ADI-34134 IgG
T5 construct: anti-HER2 IgG with one Fab arm replaced by the anti-CD3 scFv (printed 'Vx-VH', read as VL-VH); S354C and Y349C mutations; also called anti-CD3 bsIgG (CTL-19613 scFv); not shown: scFv linker between VL and VH; anti-HER2 heavy and light chains of the other arm; hinge and Fc (with S354C / Y349C)
Method: as §1, §2

[6] = biological target: T6, ADI-26913 anti-CD3 bsIgG; experiment: BLI; tip anti-CD3 bsIgG, solution ADI-34134 IgG
T6 construct: anti-HER2 IgG with one Fab arm replaced by the anti-CD3 scFv (printed 'Vx-VH', read as VL-VH); S354C and Y349C mutations; also called anti-CD3 bsIgG (ADI-26913 scFv); not shown: scFv linker; anti-HER2 Fab arm (heavy and light chain); hinge and Fc with S354C/Y349C
T6 sequence (VH, as listed by the source limits assumed, chain 1 of 2): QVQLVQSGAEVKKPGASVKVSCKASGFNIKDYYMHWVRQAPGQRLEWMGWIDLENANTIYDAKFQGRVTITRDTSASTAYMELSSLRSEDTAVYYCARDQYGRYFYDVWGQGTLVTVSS
Method: as §1, §2

[7] = biological target: T7, ADI-26916 anti-CD3 bsIgG; experiment: BLI; tip anti-CD3 bsIgG, solution ADI-34134 IgG
T7 construct: anti-HER2 IgG with one Fab arm replaced by the anti-CD3 scFv (printed 'Vx-VH', read as VL-VH); S354C and Y349C mutations; also called anti-CD3 bsIgG (ADI-26916 scFv); not shown: scFv linker; anti-HER2 Fab arm (heavy and light chain); hinge and Fc with S354C/Y349C; copies: 1 + 1
T7 sequence (VH, as listed by the source limits assumed, chain 1 of 2): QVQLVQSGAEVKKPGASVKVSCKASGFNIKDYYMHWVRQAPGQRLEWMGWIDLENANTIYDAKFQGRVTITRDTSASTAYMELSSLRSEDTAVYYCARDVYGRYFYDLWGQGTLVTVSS
Method: as §1, §2

[8] = biological target: T8, ADI-22523 anti-CD3 bsIgG (In the assayed molecule VL and VH are joined as one scFv (printed 'Vx-VH' orientation) by an undisclosed linker and fused to an Fc, paired with an anti-HER2 half-IgG. They are given here as two …); experiment: BLI; tip anti-CD3 bsIgG, solution ADI-34134 IgG
T8 construct: anti-HER2 IgG with one Fab arm replaced by the anti-CD3 scFv (printed 'Vx-VH', read as VL-VH); S354C and Y349C mutations; not shown: scFv linker between VL and VH; anti-HER2 heavy and light chains; hinge and Fc with S354C/Y349C
T8 sequence (VH, as listed by the source limits assumed, chain 1 of 2): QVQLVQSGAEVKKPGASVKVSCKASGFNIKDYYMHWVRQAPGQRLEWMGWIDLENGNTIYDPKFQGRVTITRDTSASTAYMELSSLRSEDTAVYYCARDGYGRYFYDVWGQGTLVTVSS
T8 sequence (VL, as listed by the source limits assumed, chain 2 of 2): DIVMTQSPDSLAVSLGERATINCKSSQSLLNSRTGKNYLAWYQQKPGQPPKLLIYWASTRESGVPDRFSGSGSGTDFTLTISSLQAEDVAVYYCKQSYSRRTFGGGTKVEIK
Method: as §1, §2

[9] = biological target: T9, ADI-26921 anti-CD3 bsIgG; experiment: BLI; tip anti-CD3 bsIgG, solution ADI-34134 IgG
T9 construct: anti-HER2 IgG with one Fab arm replaced by the anti-CD3 scFv (printed 'Vx-VH', read as VL-VH); S354C and Y349C mutations; also called anti-CD3 bsIgG (ADI-26921 scFv); not shown: scFv linker; anti-HER2 Fab arm (heavy and light chain); hinge and Fc with S354C/Y349C
T9 sequence (VH, as listed by the source limits assumed, chain 1 of 2): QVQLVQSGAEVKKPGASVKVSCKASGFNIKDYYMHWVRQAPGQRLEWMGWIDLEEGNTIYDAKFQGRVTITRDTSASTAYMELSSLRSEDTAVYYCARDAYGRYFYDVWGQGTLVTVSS
Method: as §1, §2

[10] = biological target: T10, ADI-26927 anti-CD3 bsIgG; experiment: BLI; tip anti-CD3 bsIgG, solution ADI-34134 IgG
T10 construct: anti-HER2 IgG with one Fab arm replaced by the anti-CD3 scFv (printed 'Vx-VH', read as VL-VH); S354C and Y349C mutations; also called anti-CD3 bsIgG (ADI-26927 scFv); not shown: scFv linker; anti-HER2 Fab arm (heavy and light chain); hinge and Fc with S354C/Y349C
T10 sequence (VH, as listed by the source limits assumed, chain 1 of 2): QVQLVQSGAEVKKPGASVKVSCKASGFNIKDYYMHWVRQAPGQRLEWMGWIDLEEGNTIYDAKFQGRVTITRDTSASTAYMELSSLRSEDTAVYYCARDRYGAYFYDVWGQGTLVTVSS
Method: as §1, §2

T1 sequence (VH, as listed by the source limits assumed, chain 1 of 2): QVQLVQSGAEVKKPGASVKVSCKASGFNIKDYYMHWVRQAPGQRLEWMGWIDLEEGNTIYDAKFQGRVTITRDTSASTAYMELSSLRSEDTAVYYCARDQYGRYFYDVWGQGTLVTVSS
T1 sequence (VL, as listed by the source limits assumed, chain 2 of 2): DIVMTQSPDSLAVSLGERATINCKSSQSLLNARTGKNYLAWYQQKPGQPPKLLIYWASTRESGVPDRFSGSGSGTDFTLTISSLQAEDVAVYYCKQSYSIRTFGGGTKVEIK

B1: ADI-34134 IgG (antibody, V domains shown)
VH: QVQLVQSGAEVKKPGSSVKVSCKASGGTFSSYAISWVRQAPGQGLEWMGGIIPIFGTANYAQKFQGRVTITADESTSTAYMELSSLRSEDTAVYYCARGAPNYYGSGGYDDGWFDPWGQGTLVTVSS
VL: EIVLTQSPGTLSLSPGERATLSCRASQSVSSDYLAWYQQKPGQAPRLLIYGASSRATGIPDRFSGSGSGTDFTLTISRLEPEDFAVYYCQQFGRVPTFGGGTKVEIK
Kd [1]: 1.13 nM
Kd [2]: 1.39 nM
Kd [3]: 0.75 nM
Kd [4]: 0.47 nM
binding result [5]: no binding
Kd [6]: 0.98 nM
Kd [7]: 1.94 nM
Kd [8]: 0.47 nM
Kd [9]: 0.94 nM
Kd [10]: 1.02 nM
